Laboratory results reported in patent US20100313281A1 (published 2010).

Target: the molecule itself
Experiment: western blot of BHK media, reducing (29 kDa) against non-reducing (49 kDa) conditions
Description: Following selection for stable cell transfectants, media isolated from pools was analyzed by western blot under reducing and non-reducing conditions using a Ztgfβ-9 antibody or an anti-EE epitope tag antibody. […] Under non-reducing conditions, Ztgfβ-9 protein migrated as at 49 kDa species. […] C-terminal EE tagged human Ztgfβ-9 expressed in BHK cells was also anti-EE affinity purified and its N-terminal sequence determined.

B1: Human Ztgfβ-9 protein (ligand)
chain: AGAPRAGRRPARPRGCADRPEELLEQLYGRLAAGVLSAFHHTLQLGPREQARNASCPAGGRPADRRFRPPTNLRSVSPWAYRISYDPARYPRYLPEAYCLCRGCLTGLFGEEDVRFRSAPVYMPTVVLRRTPACAGGRSVYTEAYVTIPVGCTCVPEPEKDADSINSSIDKQGAKLLLGPNDAPAGP
notes: also called transforming growth factor beta-9
B1: binds.
